Reference: article PMC3395577

Substrate: O=[N+]([O-])c1ccc(O[C@@H]2O[C@H](CO)[C@@H](O)[C@H](O)[C@H]2O)cc1
Assay: purified protein
Details: 50 mM imidazole-potassium buffer pH 6.4, 70°C, Table 2 prints 0.63

B1: BGL (β-glucosidase, Tthe_1813) (Thermoanaerobacterium thermosaccharolyticum DSM 571) (protein)
chain: MSDFNKDFLFGVATASYQVEGAYNEDGRSMSIWDTFCRQDGKVYKGHNGDVACDHYHLYKDDVKMMKDLGIEAYRFSIAWPRIFPEKGHYNPKGIDFYKRLTDELLKNDIKPFVTIYHWDLPQWADDLGGWLNREVVDWFGEYVSKLFNELGGYIRNWITLNEPWCSSFLSYFIGEHAPGHKDLGEAVLVSHNLLLAHGKAVEIFRDINSSDSKIGITLNLNEVFPATDSPEDKAAARIADGFQNRWFLDPIFKGEYPKDMLELFGKYAKTDFITDGDLKRISQKLDFLGVNYYTRAVVKKGNDGILNAEQIDVDNEKTEMGWEVYPESLYNILMRLKNEYTFDLPLYITENGAAYKDVVSDDGHVHDEKRVEFLKKHFKQAKRFIDDGGNLRGYFVWSLMDNFEWAHGYSKRFGIVYVDYETEKRILKDSALWYKNLISTRTI
Km: 620 µM
